T1: NOD mouse SIRP-α (mouse (NOD strain))
T1 chain: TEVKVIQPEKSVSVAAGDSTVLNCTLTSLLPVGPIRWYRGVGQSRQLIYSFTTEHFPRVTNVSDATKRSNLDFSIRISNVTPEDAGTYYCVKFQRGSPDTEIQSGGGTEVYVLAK

T2: BALBc mouse SIRP-α (mouse (BALB/c strain))
T2 chain: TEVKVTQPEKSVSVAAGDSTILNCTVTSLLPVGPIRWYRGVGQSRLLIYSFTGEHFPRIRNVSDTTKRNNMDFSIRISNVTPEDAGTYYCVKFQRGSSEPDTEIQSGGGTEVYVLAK

T3: BL6 mouse SIRP-α (mouse (C57BL/6 strain), UniProt P97797 32-148)
T3 construct: also called C57BL/6
T3 sequence: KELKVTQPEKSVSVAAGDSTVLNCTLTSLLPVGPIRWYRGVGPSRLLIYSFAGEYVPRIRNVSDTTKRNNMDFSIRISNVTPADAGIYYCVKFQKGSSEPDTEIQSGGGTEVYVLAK

T4: cynomolgus SIRP-α (cynomolgus monkey, UniProt Q5TFQ8 30-148 (human entry), limits assumed)
T4 construct: also called cyno1
T4 chain: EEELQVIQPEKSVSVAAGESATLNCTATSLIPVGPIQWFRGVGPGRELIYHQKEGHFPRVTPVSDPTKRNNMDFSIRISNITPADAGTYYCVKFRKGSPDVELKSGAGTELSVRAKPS

T5: mouse 129 SIRP-α (mouse (129 strain), UniProt P97797 32-150)
T5 construct: also called m129
T5 chain: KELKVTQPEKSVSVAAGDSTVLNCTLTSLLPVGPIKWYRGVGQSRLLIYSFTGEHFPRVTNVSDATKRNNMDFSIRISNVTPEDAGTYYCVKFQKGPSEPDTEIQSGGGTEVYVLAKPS

B1: antibody 119 variant, light chain Mut / heavy chain wt (antibody, V domains shown)
VH: DVQLLESGGGVVQPGGSLRLSCAASGFSFSNFAMTWVRQAPGEGLEWVSTIGSGDTYYADSVKGRFTISRDNSKNTLYLQMNSLRAEDTAVYYCAKDSTVSWSGDFFDYWGLGTLVTVSS
VL: EIVLTQSPATLSVSPGERATLSCRASQNVKNDLAWYQQKPGQAPRLLIYAARIRETGIPARFSGSGSGTEFTLTISSLQSEDFAVYYCQQYYDWPPFTFGGGTKVEIK
B2: antibody 135 (antibody, V domains shown)
VH: B1 VH with L5V, Q13R, G16E, N31I, F32Y, T35S, S53A, G54D, S101G
VL: EIVLTQSPATLSVSPGERVTFSCRASQNVRSDIAWYQQKPGQAPRLLIYAASSRDTGIPDRFSGSGSGTDFTLTISSLQSEDFGVYYCQQYYDWPPFTFGGGTKVEIK
notes: also called AB135; S135
B3: antibody 135 variant, light chain wt / heavy chain Mut (antibody, V domains shown)
VH: EVQLVESGGGVVQPGGSLRLSCAASGFSFSIYAVSWVRQAPGKGLEWVSTIGADDTYYADSVKGRFTISRDNSKNTLYLQMNSLRAEDTAVYYCAKDSTVGWSGDFFDYWGQGTLVTVSS
VL: B2 VL
B4: antibody 135 variant, light chain Mut / heavy chain wt (antibody, V domains shown)
VH: B3 VH with E1D, Q13R, G16E, V34M, K43E, Q112L
VL: B2 VL with F21L, D60A
B5: antibody 119 variant, light chain wt / heavy chain Mut (antibody, human IgG1, V domains shown)
VH: B1 VH with D1E, M34V, E43K, L112Q
VL: B1 VL with L21F, K39R, A60E, S76T
B6: antibody 173 (antibody, V domains shown)
VH: DVQLVESGGGVVRPGESLRLSCAASGFAFSDHDMSWVRQGPGEGLEWVAGISLRGGVTWYADSVKGRFTISRDNSKNTLYLRLFSLRTEDTAIYYCARESWNTFFDYWGLGTLVTVSS
VL: EIVLTQSPGTLSLSPGETATLSCRASQNVRSNLAWYQQKPGQAPRLLIYDASSRATGIPDRFSGSGSGTDFTLTISSLQSEDFAVYYCQQYGNGPPLTFGGGTKVEIK
notes: also called S173

These results are taken from patent publication US20210363269A1 (ALX ONCOLOGY, published 2021).

Positions count from the first letter of the chain named.

T8 sequence (chain, as listed by the source limits assumed): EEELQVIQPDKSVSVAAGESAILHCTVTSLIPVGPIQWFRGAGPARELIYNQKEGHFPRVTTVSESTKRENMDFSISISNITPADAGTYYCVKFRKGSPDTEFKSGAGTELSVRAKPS
T6 sequence (Q9P1W8 29-147 limits assumed): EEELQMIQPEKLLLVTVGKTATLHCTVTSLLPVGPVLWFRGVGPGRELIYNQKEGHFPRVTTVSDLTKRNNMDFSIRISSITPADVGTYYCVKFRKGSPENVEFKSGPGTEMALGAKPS
T7 sequence (P78324 31-149 limits assumed): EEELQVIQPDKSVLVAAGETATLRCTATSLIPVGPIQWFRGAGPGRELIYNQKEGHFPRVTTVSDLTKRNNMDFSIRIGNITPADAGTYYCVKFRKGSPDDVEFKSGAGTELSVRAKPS
T9 sequence (O00241 30-148 limits assumed): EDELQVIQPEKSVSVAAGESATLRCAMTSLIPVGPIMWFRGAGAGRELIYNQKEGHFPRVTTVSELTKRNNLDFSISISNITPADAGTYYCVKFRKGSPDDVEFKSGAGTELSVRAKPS

The first assay addresses T6, human SIRPγ isoform 1 (human, UniProt Q9P1W8 29-147).
T6 construct: also called Gamma; Human SIRPg
Briefly: SPR, antibody on GLC chip. In short, it runs like this: (§1)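 SIRP analytes were run over antibody surfaces in PBS pH 7.4 with 0.01% Tween-20 at 25° C, using one-shot injections at 100, 33, 11, 3.7, 1.2 and 0 nM. The antibodies, purified by Protein A, had been amine-coupled (~1000 RU) to a GLC chip of a ProteOn XPR36 biosensor from an 80 nM solution in 10 mM sodium acetate pH 4.5. Association lasted 90 s at a flow of 100 μL/min, and dissociation lasted 1200 s. KD equals kd/ka, obtained by fitting double-referenced data globally to a Langmuir model.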
A general note: Surface plasmon resonance follows binding to a sensor surface in real time, without labels.
The Kd is a measure of binding affinity in units of concentration. A high value points to a looser complex. The molecule B1 came in with a Kd of 0.233 nM.

On to B2, for which the Kd was 0.539 nM.

With B3, the Kd was 0.779 nM.

Turning to B4, the Kd stood at 0.522 nM.

A further assay addresses T7, human SIRP-α v1 (human, UniProt P78324 31-149).
T7 construct: also called Human v1; Human V1
Put plainly: SPR, antibody on GLC chip. The method, boiled down: as §1
In turn, B1 showed a Kd of 0.214 nM.

In the case of B2, the Kd was 0.151 nM.

The molecule B3 came in with a Kd of 0.184 nM.

Consider B5, for which the Kd was found to be 0.254 nM.

For the molecule B4, binding was characterised by a dissociation constant (Kd) of 0.149 nM.

Another assay deals with T1, NOD mouse SIRP-α. Put plainly: SPR, antibody on GLC chip. The method, boiled down: as §1
Consider B1, for which the binding result was “no binding”.

In the case of B2, the binding result was “no binding”.

In the case of B3, the binding result was “no binding”.

As for B5, the binding result is listed as “no binding”.

For the molecule B4, the binding result is “no binding”.

In the next assay the target is T2, BALBc mouse SIRP-α. Put plainly: SPR, antibody on GLC chip. The method, boiled down:
as §1
For B1, the binding result is given as “no binding”.

With B2, the binding result is reported as “no binding”.

Consider B3, for which the binding result was “no binding”.

B5: the binding result is given as “no binding”.

Consider B4, for which the binding result was “no binding”.

A further assay concerns the target T8, human SIRP-α v2 (human).
T8 construct: also called Human v2; Human V2
Briefly: SPR, antibody on GLC chip. In short, it runs like this: as §1
The molecule B1 displayed a Kd of 0.0864 nM.

The molecule B2 gave a Kd of 0.029 nM.

B3 registered a Kd of 0.0197 nM.

As to B5, the Kd is 0.0694 nM.

Regarding B4, the Kd is 0.0266 nM.

The target in the next assay is T3, BL6 mouse SIRP-α. Briefly: SPR, antibody on GLC chip. The method, boiled down: as §1
B1: the binding result is listed as “no binding”.

Take B2: the binding result is given as “no binding”.

As for B3, the binding result is on record as “no binding”.

B5: the binding result was “no binding”.

For the molecule B4, the binding result is “no binding”.

In the next assay the target is T4, cynomolgus SIRP-α. Briefly: SPR, antibody on GLC chip. The method, boiled down: as §1
For B1, the Kd turned out to be 0.138 nM.

In the case of B2, the Kd was 0.0969 nM.

As for B3, the Kd worked out at 0.125 nM.

Molecule B5 showed a Kd of 0.155 nM.

B4 gave a Kd of 0.102 nM.

The next assay addresses T9, human SIRPβ isoform 1 (human, UniProt O00241 30-148).
T9 construct: also called Beta; Human SIRPb
Briefly: SPR Koff +/-. In short, it runs like this:
(§2)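 Apparent association and dissociation rate constants, and KD as kd/ka, were obtained by global fitting of double-referenced data to a simple Langmuir model. Measurements used a ProteOn XPR36 biosensor at 25° C in PBS pH 7.4 with 0.01% Tween-20, with SIRP analytes injected in one-shot kinetic mode at nominal concentrations from A280 absorbance. The purified antibodies were either amine-coupled to a GLC chip or held on an NLC chip by biotinylated Protein A.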
For B6, the binding result was “no binding”.

Consider B2, for which the binding result is on record as “binds”.

The target in another assay is T5, mouse 129 SIRP-α. Put plainly: SPR Koff +/-. In short, it runs like this: as §2
As for B6, the binding result is given as “no binding”.

As to B2, the binding result was “no binding”.

A further assay deals with T6, human SIRPγ isoform 1. Put plainly: SPR Koff +/-. The method, boiled down: as §2
For B6, the binding result is recorded as “no binding”.

A further assay concerns the target T4, cynomolgus SIRP-α. Put plainly: SPR Koff +/-. In short, it runs like this: as §2
On to B6, for which the binding result was “no binding”.

The next assay concerns the target T7, human SIRP-α v1. Put plainly: SPR. In short, it runs like this:
as §2
Molecule B6 returned a dissociation constant Kd of 0.937 nM.

Regarding B2, binding was characterised by a dissociation constant (Kd) of 0.151 nM.

The target of the next assay is T8, human SIRP-α v2. Briefly: SPR. In short, it runs like this:
as §2
Molecule B6 came in with a Kd of 9.28 nM.

B2: the Kd stood at 0.029 nM.
